Measurements: patent publication US20040077547A1, “FVIIa antagonists” (Genentech, Inc., priority 1999, published 2004)
Where no end group is shown, it is not given here.

What was measured:
TF-FVIIa complex = target: T1, TF-FVIIa complex (Homo sapiens, UniProt P08709); assay: Peptide-phage binding to immobilized TF-FVIIa
T1 construct: proteolysis of FVII to FVIIa at a site (Arg152-Ile153 for human FVII (hFVII))
Experimental: (§1) Selection Conditions—TF1-243 (Paborsky, L. R., et al., J. Biol. Chem. 266: 21911 (1991)) or recombinant human FVIIa (2 μg/ml each) were immobilized directly to Maxisorp plates (Nunc) in 50 mM ammonium bicarbonate, pH 9.3 by incubating overnight at 4° C. Wells were blocked using Sorting Buffer (50 mM HEPES, pH 7.2, 5 mM CaCl2, 5 mM MgCl2, 150 mM NaCl, 1% BSA) for 1 h at 25° C. Recombinant human FVIIa (2 μg/ml) in Sorting Buffer was added for 30 min to wells previously coated and blocked with TF to form the TF-FVIIa complex. Phage from the libraries described above were pooled into 3 groups. Pool A contained XiCXjCXk where j=5-7; Pool B contained X4CX2GPX4CX4, X20 and XiCXjCXk where j=4; Pool E contained XiCXjCXk where j=8-10. Phage from each pool were incubated with the immobilized targets in Sorting Buffer for 3 h at 25° C.; generally about 5×10^10 phage were added at the beginning of each round. Unbound phage were removed by repetitive washing with Wash Buffer (50 mM HEPES, pH 7.2, 150 mM NaCl, 0.005% Tween 20); remaining phage were eluted with 500 mM KCl, 10 mM HCl, pH 2. The eluted phage were then propagated in XL1-Blue cells with VCSM13 helper phage (Stratagene) overnight at 37° C. Enrichment could be monitored by titering the number of phage which bound to a target coated well compare to a well coated with BSA. […]

TF = target: T2, TF (Homo sapiens, UniProt P13726); assay: Peptide-phage binding to wells coated with TF; conditions: polyvalent phage display; also BSA-coated wells
T2 construct: TF1-243 for membrane tissue factor composed of the extracellular domain and transmembrane amino acid residues 1-243
Experimental: as §1

recombinant human FVIIa [1] = target: T3, recombinant human FVIIa (Homo sapiens, UniProt P08709); assay: Peptide-phage binding to immobilized FVIIa; conditions: polyvalent phage display
T3 construct: proteolysis of FVII to FVIIa at a site (Arg152-Ile153 for human FVII (hFVII))
T3 sequence (P08709 61-212 limits assumed): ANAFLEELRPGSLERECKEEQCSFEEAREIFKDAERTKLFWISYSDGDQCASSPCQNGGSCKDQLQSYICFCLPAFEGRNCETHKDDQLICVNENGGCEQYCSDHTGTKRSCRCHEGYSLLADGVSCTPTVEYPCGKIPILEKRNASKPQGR
T3 sequence (P08709 213-466 limits assumed): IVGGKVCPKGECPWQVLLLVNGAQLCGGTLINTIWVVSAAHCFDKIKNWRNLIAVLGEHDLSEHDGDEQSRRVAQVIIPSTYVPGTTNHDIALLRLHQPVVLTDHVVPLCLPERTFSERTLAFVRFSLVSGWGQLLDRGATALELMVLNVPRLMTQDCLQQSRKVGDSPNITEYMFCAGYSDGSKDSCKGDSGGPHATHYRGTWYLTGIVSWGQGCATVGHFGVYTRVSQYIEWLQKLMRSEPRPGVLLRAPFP
Experimental: as §1

TF-FVIIa = target: T4, TF-FVIIa (Homo sapiens, UniProt P08709); assay: FX Activation Assay; type: biochemical; conditions: compared with SEQ ID NO: 4
T4 construct: proteolysis of FVII to FVIIa at a site (Arg152-Ile153 for human FVII (hFVII))
Experimental: FX Activation Assay—Activation of FX by TF-FVIIa was monitored at room temperature as a function of peptide concentration. Each assay sample contained 100 μl of 460 pM relipidated TF1-243 (Kelley, R. F., et al. Blood 89:3219-3227 (1997)) and 30 pM FVIIa in HBS/Ca buffer (20 mM HEPES, pH 7.4, 5 mM CaCl2, 150 mM NaCl, 0.1% PEG 8000); after 20 min, 25 μl of peptide diluted in HBS/Ca Buffer was added. Following a 30 min incubation the reaction was initiated by the addition of 25 μl of 1 μM FX in HBS/Ca (Note: this yields a final concentration of 306 pM TFPC, 20 pM FVIIa, and 166 nM FX). For kinetic analysis, the final concentration of FX was varied from between 20 and 500 nM. Aliquots of 25 μl were removed at 1, 3, 5, 7 and 9 min and quenched in 25 μl of 50 mM EDTA. The FXa generated in each aliquot could be measured by the addition of 100 μl of 250 μM Spectrozyme fXa (American Diagnostica), 50 mM Tris, pH 8, 50 mM NaCl, 0.0025% Triton X-100. The rate of FXa generated at each peptide concentration was proportional to the initial slope of the absorbance at 405 nm vs. time. Sigmoidal curves were fit to a four-parameter equation by nonlinear regression analysis (Marquardt, J. Soc. Indust. Appl. Math. 11:431-441 (1963)); the concentration of each peptide required to give a half-maximal signal in the assay was calculated from the curves and is referred to as the IC50 value.

recombinant human FVIIa [2] = target: T3, recombinant human FVIIa; assay: FVIIa Binding ELISA (competition with TF183b); conditions: for affinity for FVIIa: compared with SEQ ID NO: 4
Experimental: FVIIa Binding ELISA—The ability of peptides to compete with biotinylated TF183 (TF183b) (or other peptides described herein that could be biotinylated as described) for binding to FVIIa was monitored using a FVIIa Binding ELISA or a TF-FVIIa Binding ELISA. Microtiter plates were coated overnight with 2 μg/ml recombinant human FVIIa or 2 μg/ml TF1-243 (Paborsky, L. R., et al., J. Biol. Chem. 266: 21911 (1991)) in 50 mM ammonium bicarbonate pH 9 at 4° C.; all other steps were performed at room temperature. Plates were then blocked with 1% BSA in Assay Buffer (50 mM HEPES, pH 7.2, 5 mM CaCl2, 150 mM NaCl). For the TF-FVIIa ELISA, recombinant human FVIIa (2 μg/ml) in 1% BSA in Assay Buffer was added for 30 min to the wells previously coated and blocked with TF to form the TF-FVIIa complex. Dilutions of peptide in Assay Buffer plus 0.05% Tween 20 were added to the microtiter plate along with 5 nM TF183b for 1 h. The microtiter plate was washed 3 times with Assay Buffer plus 0.05% Tween 20 and the biotinylated-peptide bound was detected with a Streptavidin/HRP conjugate (Streptavidin-POD, Roche Molecular Biochemicals). The amount of HRP bound was measured using ABTS/H2O2 substrate (Kirkegaard and Perry Laboratories) and monitoring the absorbance at 405 nm. The absorbance at 405 nm was plotted versus the concentration of peptide originally added to the well. Sigmoidal curves were fit to a four-parameter equation by nonlinear regression analysis (Marquardt, J. Soc. Indust. Appl. Math. 11:431-441 (1963); the concentration of each peptide required to give a half-maximal signal in the assay was calculated from the curves and is referred to as the IC50 value.

BSA = target: T5, BSA (bovine, UniProt P02769 25-607); assay: phage binding to coated wells
T5 construct: Control coat
T5 sequence (P02769 25-607 limits assumed): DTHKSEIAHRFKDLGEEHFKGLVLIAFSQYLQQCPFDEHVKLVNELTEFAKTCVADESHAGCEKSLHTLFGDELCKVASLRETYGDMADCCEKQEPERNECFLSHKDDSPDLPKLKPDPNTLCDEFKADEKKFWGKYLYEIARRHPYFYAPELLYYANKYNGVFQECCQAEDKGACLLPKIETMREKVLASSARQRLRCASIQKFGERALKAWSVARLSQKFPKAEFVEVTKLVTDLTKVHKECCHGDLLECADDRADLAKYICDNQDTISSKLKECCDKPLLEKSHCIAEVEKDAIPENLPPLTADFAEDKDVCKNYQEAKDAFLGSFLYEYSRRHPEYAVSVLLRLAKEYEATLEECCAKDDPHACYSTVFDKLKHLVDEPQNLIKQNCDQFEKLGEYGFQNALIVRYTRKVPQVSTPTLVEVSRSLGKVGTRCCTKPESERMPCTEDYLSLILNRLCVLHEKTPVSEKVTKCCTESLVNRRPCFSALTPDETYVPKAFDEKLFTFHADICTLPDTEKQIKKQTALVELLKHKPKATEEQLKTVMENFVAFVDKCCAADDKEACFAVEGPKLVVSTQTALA

T1 sequence (P13726 33-275 partner limits assumed, one chain of several): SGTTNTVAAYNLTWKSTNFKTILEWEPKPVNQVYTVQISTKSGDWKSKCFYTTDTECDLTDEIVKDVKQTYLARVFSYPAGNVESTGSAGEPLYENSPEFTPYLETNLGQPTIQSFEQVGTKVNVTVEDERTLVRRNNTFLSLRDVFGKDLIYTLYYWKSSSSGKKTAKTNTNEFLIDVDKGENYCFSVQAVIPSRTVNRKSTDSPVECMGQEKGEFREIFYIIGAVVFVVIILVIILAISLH
T4 sequence (P13726 33-275 partner limits assumed, one chain of several): as above
T2 sequence (P13726 33-275): as the sequence (P13726 33-275 partner limits assumed, one chain of several) above

SAEWEVLCWTWEGCGSVGLV [TF53]
binding to covalently and noncovalently active site blocked TF-FVIIa (TF-FVIIa complex; active site alkylated with biotinylated EGR chloromethylketone or blocked by TF7I-C): bound | binding of phage bearing the sequence to immobilized TF-FVIIa (TF-FVIIa complex; polyvalent phage display): bound specifically | binding of phage bearing the sequence to wells coated with TF (TF): did not bind | binding of phage bearing the sequence to immobilized FVIIa (recombinant human FVIIa [1]): bound specifically

EEWEVLCWTWETCERGEG [TF100]
ability to inhibit FX activation (TF-FVIIa): increased ability to inhibit FX activation | affinity for FVIIa (recombinant human FVIIa [2]): improved affinity

EEWEVLCWTWETCER [TF183]
IC50 for FVIIa (recombinant human FVIIa [2]; compared with TF65 (SEQ ID NO: 4), values in FIG. 4, not given): decreased IC50

TF100Z: TF100 peptide fused to the Z consensus domain of protein A (EEWEVLCWTWETCERGEGGGGSGG)
ability to inhibit FX activation (TF-FVIIa): increased ability to inhibit FX activation | affinity for FVIIa (recombinant human FVIIa [2]): improved affinity

B1: TF53 peptide-phage (polyvalent phage clone from Pool A bearing SAEWEVLCWTWEGCGSVGLV) (peptide)
peptide: SAEWEVLCWTWEGCGSVGLV
modifications: cysteine pairing not given here; also: displayed on phage as a coat-protein fusion
binding result (BSA): no binding
